In IntAct's records for PubMed 14699056:

B1: Dolichyl-diphosphooligosaccharide--protein glycosyltransferase subunit WBP1 (Saccharomyces cerevisiae), P33767 (parent)
chain: MRTDWNFFFCILLQAIFVVGTQTSRTLVLYDQSTEPLEEYSVYLKDLEQRNYKLEYLDINSTSTTVDLYDKEQRLFDNIIVFPTKGGKNLARQIPVKQLIKFFENEGNILCMSSPGAVPNTIRLFLNELGIYPSPKGHVIRDYFSPSSEELVVSSNHLLNKYVYNARKSEDFVFGESSAALLENREQIVPILNAPRTSFTESKGKCNSWTSGSQGFLVVGFQNLNNARLVWIGSSDFLKNKNQDSNQEFAKELLKWTFNEKSVIKSVHAVHSHADGTSYDEEPYKIKDKVIYSVGFSEWNGEEWLPHIADDIQFELRQVDPYYRLTLSPSGNDSETQYYTTGEFILPDRHGVFTFLTDYRKIGLSFTTDKDVKAIRHLANDEYPRSWEISNSWVYISAICGVIVAWIFFVVSFVTTSSVGKKLETFKKTN
partner: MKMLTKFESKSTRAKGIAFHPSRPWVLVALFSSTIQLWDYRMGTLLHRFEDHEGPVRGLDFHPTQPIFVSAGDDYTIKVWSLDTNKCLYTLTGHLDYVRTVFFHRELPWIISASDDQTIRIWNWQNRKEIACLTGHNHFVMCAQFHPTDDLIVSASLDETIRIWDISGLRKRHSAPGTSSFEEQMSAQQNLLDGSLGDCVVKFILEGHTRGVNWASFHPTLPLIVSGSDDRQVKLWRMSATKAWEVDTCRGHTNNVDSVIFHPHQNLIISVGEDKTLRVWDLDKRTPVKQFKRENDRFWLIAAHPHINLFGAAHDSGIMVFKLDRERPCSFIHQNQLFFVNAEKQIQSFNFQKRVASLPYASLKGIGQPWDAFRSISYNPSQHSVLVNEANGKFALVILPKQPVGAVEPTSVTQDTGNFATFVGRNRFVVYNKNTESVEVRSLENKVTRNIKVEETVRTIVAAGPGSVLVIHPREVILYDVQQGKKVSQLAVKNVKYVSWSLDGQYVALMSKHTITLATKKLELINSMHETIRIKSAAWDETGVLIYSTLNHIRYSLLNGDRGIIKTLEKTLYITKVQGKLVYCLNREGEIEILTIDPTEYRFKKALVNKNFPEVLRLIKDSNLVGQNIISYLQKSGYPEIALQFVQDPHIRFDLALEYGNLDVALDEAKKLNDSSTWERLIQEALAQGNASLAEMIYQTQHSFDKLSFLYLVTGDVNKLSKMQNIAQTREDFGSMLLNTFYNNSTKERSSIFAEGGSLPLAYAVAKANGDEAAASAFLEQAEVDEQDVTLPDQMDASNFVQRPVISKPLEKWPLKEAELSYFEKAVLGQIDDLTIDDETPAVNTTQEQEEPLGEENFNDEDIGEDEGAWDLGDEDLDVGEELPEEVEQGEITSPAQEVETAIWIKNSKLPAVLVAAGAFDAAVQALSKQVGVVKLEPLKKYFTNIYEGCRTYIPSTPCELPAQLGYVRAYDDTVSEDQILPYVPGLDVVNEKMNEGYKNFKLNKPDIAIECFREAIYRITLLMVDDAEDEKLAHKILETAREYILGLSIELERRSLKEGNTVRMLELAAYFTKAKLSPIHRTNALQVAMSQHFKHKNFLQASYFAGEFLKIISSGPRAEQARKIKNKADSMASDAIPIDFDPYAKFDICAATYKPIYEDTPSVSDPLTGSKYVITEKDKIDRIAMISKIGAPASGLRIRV
B2: Protein EMP47 (Saccharomyces cerevisiae), P43555 (parent)
chain: MMMLITMKSTVLLSVFTVLATWAGLLEAHPLGDTSDASKLSSDYSLPDLINARKVPNNWQTGEQASLEEGRIVLTSKQNSKGSLWLKQGFDLKDSFTMEWTFRSVGYSGQTDGGISFWFVQDSNVPRDKQLYNGPVNYDGLQLLVDNNGPLGPTLRGQLNDGQKPVDKTKIYDQSFASCLMGYQDSSVPSTIRVTYDLEDDNLLKVQVDNKVCFQTRKVRFPSGSYRIGVTAQNGAVNNNAESFEIFKMQFFNGVIEDSLIPNVNAMGQPKLITKYIDQQTGKEKLIEKTAFDADKDKITNYELYKKLDRVEGKILANDINALETKLNDVIKVQQELLSFMTTITKQLSSKPPANNEKGTSTDDAIAEDKENFKDFLSINQKLEKVLVEQEKYREATKRHGQDGPQVDEIARKLMIWLLPLIFIMLVMAYYTFRIRQEIIKTKLL
partner: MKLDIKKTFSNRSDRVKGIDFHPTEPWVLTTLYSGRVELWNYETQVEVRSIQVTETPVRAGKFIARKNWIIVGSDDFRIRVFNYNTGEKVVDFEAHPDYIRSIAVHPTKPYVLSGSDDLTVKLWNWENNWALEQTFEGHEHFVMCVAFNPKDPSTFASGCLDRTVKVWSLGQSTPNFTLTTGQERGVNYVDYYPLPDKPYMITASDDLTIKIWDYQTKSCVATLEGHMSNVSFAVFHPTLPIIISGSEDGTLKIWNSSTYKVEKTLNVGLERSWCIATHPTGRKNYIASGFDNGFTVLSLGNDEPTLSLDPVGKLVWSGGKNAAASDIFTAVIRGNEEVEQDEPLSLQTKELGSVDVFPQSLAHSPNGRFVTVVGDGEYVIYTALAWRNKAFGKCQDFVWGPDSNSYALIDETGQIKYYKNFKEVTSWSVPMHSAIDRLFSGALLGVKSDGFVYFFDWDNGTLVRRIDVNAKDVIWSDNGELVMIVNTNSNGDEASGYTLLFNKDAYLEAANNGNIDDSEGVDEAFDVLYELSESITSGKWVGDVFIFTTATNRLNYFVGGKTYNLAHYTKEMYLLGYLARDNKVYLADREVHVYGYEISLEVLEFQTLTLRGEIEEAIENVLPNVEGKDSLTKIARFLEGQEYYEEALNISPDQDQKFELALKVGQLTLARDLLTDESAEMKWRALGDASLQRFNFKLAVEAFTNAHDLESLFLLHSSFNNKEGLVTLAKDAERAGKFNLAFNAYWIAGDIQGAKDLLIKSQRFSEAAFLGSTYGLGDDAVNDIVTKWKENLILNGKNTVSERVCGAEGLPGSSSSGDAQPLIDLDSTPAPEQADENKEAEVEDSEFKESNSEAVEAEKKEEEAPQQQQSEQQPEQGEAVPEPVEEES

Variants of: B1
Conditions: with copa_yeast COP1, P53622

Variant	effect of a mutation on the interaction
MRTDWNFFFCILLQAIFVVGTQTSRTLVLYDQSTEPLEEYSVYLKDLEQRNYKLEYLDINSTSTTVDLYDKEQRLFDNIIVFPTKGGKNLARQIPVKQLIKFFENEGNILCMSSPGAVPNTIRLFLNELGIYPSPKGHVIRDYFSPSSEELVVSSNHLLNKYVYNARKSEDFVFGESSAALLENREQIVPILNAPRTSFTESKGKCNSWTSGSQGFLVVGFQNLNNARLVWIGSSDFLKNKNQDSNQEFAKELLKWTFNEKSVIKSVHAVHSHADGTSYDEEPYKIKDKVIYSVGFSEWNGEEWLPHIADDIQFELRQVDPYYRLTLSPSGNDSETQYYTTGEFILPDRHGVFTFLTDYRKIGLSFTTDKDVKAIRHLANDEYPRSWEISNSWVYISAICGVIVAWIFFVVSFVTTSSVGKKLETFAATN [K427A;K428A]	decreasing interaction

Variants of: B2
Conditions: with copb2_yeast SEC27, P41811

Variant	effect of a mutation on the interaction
MMMLITMKSTVLLSVFTVLATWAGLLEAHPLGDTSDASKLSSDYSLPDLINARKVPNNWQTGEQASLEEGRIVLTSKQNSKGSLWLKQGFDLKDSFTMEWTFRSVGYSGQTDGGISFWFVQDSNVPRDKQLYNGPVNYDGLQLLVDNNGPLGPTLRGQLNDGQKPVDKTKIYDQSFASCLMGYQDSSVPSTIRVTYDLEDDNLLKVQVDNKVCFQTRKVRFPSGSYRIGVTAQNGAVNNNAESFEIFKMQFFNGVIEDSLIPNVNAMGQPKLITKYIDQQTGKEKLIEKTAFDADKDKITNYELYKKLDRVEGKILANDINALETKLNDVIKVQQELLSFMTTITKQLSSKPPANNEKGTSTDDAIAEDKENFKDFLSINQKLEKVLVEQEKYREATKRHGQDGPQVDEIARKLMIWLLPLIFIMLVMAYYTFRIRQEIISTSLL [K441S;K443S]	decreasing interaction
